Values of other authors in publication PMC11145553.

Molecular target: LRP1 (Homo sapiens) (UniProt Q07954)

Chain of 2N4R tau (P10636 2-758): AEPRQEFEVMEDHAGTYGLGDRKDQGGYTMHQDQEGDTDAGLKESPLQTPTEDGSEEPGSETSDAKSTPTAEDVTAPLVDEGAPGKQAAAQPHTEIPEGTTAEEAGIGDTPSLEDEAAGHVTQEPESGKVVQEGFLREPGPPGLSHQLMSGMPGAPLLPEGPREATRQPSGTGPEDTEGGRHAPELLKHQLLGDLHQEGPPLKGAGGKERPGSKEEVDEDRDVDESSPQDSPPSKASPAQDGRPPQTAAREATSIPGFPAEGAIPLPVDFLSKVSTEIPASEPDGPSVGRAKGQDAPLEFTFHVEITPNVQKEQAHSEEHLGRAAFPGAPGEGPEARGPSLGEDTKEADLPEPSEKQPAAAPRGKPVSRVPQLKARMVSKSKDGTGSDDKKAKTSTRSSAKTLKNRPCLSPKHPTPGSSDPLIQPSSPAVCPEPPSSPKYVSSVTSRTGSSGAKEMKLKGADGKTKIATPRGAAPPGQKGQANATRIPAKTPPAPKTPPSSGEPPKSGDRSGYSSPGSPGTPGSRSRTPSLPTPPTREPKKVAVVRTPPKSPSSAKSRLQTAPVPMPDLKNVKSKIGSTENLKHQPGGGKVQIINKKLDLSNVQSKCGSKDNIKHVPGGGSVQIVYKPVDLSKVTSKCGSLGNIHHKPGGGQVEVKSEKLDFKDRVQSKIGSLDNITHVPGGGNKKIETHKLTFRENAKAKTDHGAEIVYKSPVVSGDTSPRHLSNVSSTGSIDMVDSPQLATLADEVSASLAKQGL

- Kd: 60 nM
Substance: 2N4R tau (from UniProt P10636)
